Test results: patent US20080317723A1, “LYMPHATIC ENDOTHELIAL CELLS MATERIALS AND METHODS” (VEGENICS LIMITED, priority 2001, published 2008)

How the values were obtained:
Type in all cases: cell-based, human
[1] = system: VEGFR-3 expressing lymphatic endothelial cells; assay: Serum starvation-induced apoptosis, cytoplasmic mono- and oligonucleosomes, isolated VEGFR-3 positive cells; settings: for cell survival during serum starvation: VEGFR-3 expressing cells, FIG. 2B
Text: FIG. 2A-FIG. 2B. VEGFR-2 and VEGFR-3, but not VEGFR-1 activating ligands inhibit apoptosis of serum-deprived HMVE cells. Measurement of the cytoplasmic histone-associated DNA fragments (mono- and oligonucleosomes) in serum-starved HMVE cells consisting of two cell populations of blood vascular and lymphatic endothelial cells (FIG. 2A) or in the isolated cell populations after magnetic cell sorting using VEGFR-3 antibodies (FIG. 2B). The enrichment factor of cytoplasmic oligonucleosomes in the apoptotic cells grown for 24 h in serum-free medium (BSA) was chosen as 100 (%). Data represent mean values from three independent experiments (mean±s.d.). […] Isolation of lymphatic and blood vascular endothelial cells. […] Analysis of endothelial cell apoptosis. For the apoptosis assay, 70,000 cells per well were seeded into 24-well plates. Treatments were done in duplicates and apoptosis was detected by measuring cytoplasmic histone-associated DNA fragments using the death detection ELISA PLUS kit (Roche, Indianapolis, Ind.). […] Annexin-V-FLUOS (Roche, Indianapolis, Ind.) was used to detect phosphatidylserine on the apoptotic cells by fluorescence microscopy according to the instructions of the manufacturer. The simultaneous staining with propidium iodide (1 μg/ml) was used for discriminating possible necrotic cells.

[2] = system: Akt; assay: Akt phosphorylation in HMVE cells, Western blot; settings: for Akt phosphorylation at Ser473 on growth factor stimulation: HMVE cells; for time of maximal (peak) Akt phosphorylation after exposure: HMVEC, FIG. 4
Protocol: Western blot analysis. Endothelial cells were cultured on 35 mm dishes to near confluence, starved for 24 h in serum free medium and stimulated as indicated. Wortmannin ([…]), LY294002 ([…]), PD98059 (10-25 μM) or GF109203X (2.5-5 μM) were added 1-3 h before stimulation, where indicated. DMSO, into which the inhibitors were dissolved, was used as a control. After the stimulation, the cells were lysed in lysis buffer (50 mM HEPES, pH 7.5, 150 mM NaCl, 10 mM EDTA, 100 mM NaF, 1% TritonX-100 supplemented with 2 mM Na3VO4, 0.5 mM PMSF, 100 U/ml approtinin and 10 μg/ml leupeptin). Clarified lysates were separated by SDS-PAGE, transferred to nitrocellulose and immunoblotted using the phosphospecific antibodies for Akt-Ser473, Akt-Thr308, p42/44 MAPK-Thr202/Tyr204 or CREB-Ser133. The bound antibodies were detected using horseradish peroxidase conjugated secondary antibodies and enhanced chemiluminescence detection system. The blots were stripped and reprobed with antibodies against Akt, MAPK or CREB for quantification by reading the optical densities of the signals with Multi-Analyst 2.0.1 program (Bio-Rad).
As discussed in the background, a major signal transduction pathway by which growth factor receptors can promote cell survival employs the PI-3-kinase and its downstream target, the serine-threonine kinase Akt. The effect of the different VEGFs on Akt was analyzed by assessing Akt phosphorylation in serine 473 and threonine 308 using phosphospecific antibodies.

[3] = system: HMVE cells; assay: Boyden chamber cell migration assay; settings: 6 h, VEGF 10 ng/ml, VEGF-C 500 ng/ml, VEGF-D 500 ng/ml, VEGF-C156S 3 μg/ml
Protocol: FIG. 5. VEGFR-3 mediates endothelial cell migration. The migration of HMVE cells in the presence of different VEGFs in a Boyden chamber assay. […] Data represent mean values from three independent experiments (mean±s.d.). The growth factor concentrations used are: VEGF 10 ng/ml, VEGF-C 500 ng/ml, VEGF-D 500 ng/ml and VEGF-C156S 3 μg/ml.
Cell migration assay. Migration assays were performed in a 48-well chemotaxis Boyden chamber (Neuroprobe Inc.). Eight micron Nucleopore polycarbonate filters (Corning) were coated with 100 μg/ml of collagen type I (Upstate Biotechnology) overnight at +4° C. and air dried. The filters were placed over the lower chamber wells containing the growth factors in serum-free growth medium supplemented with 0.2% BSA. For blocking experiments, VEGF and VEGF-C156S were preincubated with a ten-fold molar excess of soluble human VEGFR-3 for 30 min. HMVE cells were suspended in the growth medium and 10,000 cells in 50 μl were added to each well in the upper chamber. The cells were allowed to migrate for 6 h at 37° C. after which the filter was fixed with cold methanol and stained with hematoxylin (Meyer). Non-migrated cells on the upper surface of the filter were removed by scraping with a cotton swab and the number of migrated cells was counted. The assays were run in quadruplicate and repeated with three different batches of HMVECs.

[4] = serum-deprived lymphatic endothelial cells

For VEGF, the “cell survival during serum starvation” value [1] was “promoted cell survival”, the “Akt phosphorylation at Ser473 on growth factor stimulation” value [2] was “phosphorylated at Ser473” and the “time of maximal (peak) Akt phosphorylation after exposure” value [2] was 20 to 30 min. For the same molecule, the “stimulation of HMVE cell migration” value [3] was “ten-fold stimulation of cell migration”.

B1: VEGF-C156S: VEGFR-3 specific mutant form of VEGF-C, cysteine 156 changed into serine; recombinant human (Thr103 to Ile225) (protein, UniProt P49767 103-225, looked up, variant C156S)
chain: TEETIKFAAAHYNTEILKSIDNEWRKTQCMPREVCIDVGKEFGVATNTFFKPPSVSVYRCGGCCNSEGLQCMNTSTSYLSKTLFEITVPLSQGPKPVTISFANHTSCRCMSKLDVYRQVHSII
For B1, the “cell survival during serum starvation” value [1] was “induced the survival of only the VEGFR-3 positive cells”, the “accumulation of oligo- and mononucleosomes” value [1, 4] was “inhibited dose-dependently” and the “concentration at which the maximum effect was achieved (inhibition of oligo- and mononucleosome accumulation)” value [1, 4] was 500 ng/mL. For the same molecule, the “Akt phosphorylation at Ser473 on growth factor stimulation” value [2] was “phosphorylated at Ser473”, the “time of maximal (peak) Akt phosphorylation after exposure” value [2] was 30 to 40 min and the “stimulation of HMVE cell migration” value [3] was “induced the migration of HMVE cells”.
